± gives the uncertainty stated by the source.
Assay: self-splicing fitness, log relative to wild type (ln ratio); higher = more splicing; Tetrahymena group I intron in knt gene, E. coli kanamycin selection, DiMSum; sequences stand for … in CUCUCU…GGAGGGAAAAGUUAUCAGGCAUGCACCUGGUAGCUAGUCUUUAAACCAAUAGAUUGCAUCGGUUUAAAAGGCAAGACCGUCAAAUUGCGGGAAAGGGGUCAACAGCCGUUCAGUACCAAGUCUCAGGGGAAACUUUGAGAUGGCCUUGCAAAGGGUAUGGUAAUAAGCUGACGGACAUGGUCCUAACCACGCAGCCAAGUCCUAAGUCAACAGAUCUUCUGUUGAUAUGGAUGCAGUUCACAGACUAAAUGUCGGUCGGGGAAGAUGUAUUCUUCUCAUAAGAUAUAGUCGGACCUCUCCUUAAUGGGAGCUAGCGGAUGAAGUGAUGCAACACUGGAGCCGCUGGGAACUAAUUUGUAUGCGAAAGUAUAUUGAUUAGUUUUGGAGUACUCGUGGUCG
Method in brief: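 Pooled colonies went to amplicon sequencing on an Illumina HiSeq 2500 after six replicate transformations. The plates were LB agar with 100 μg/mL carbenicillin, 50 μM IPTG and 0.2% rhamnose, with or without 25 μg/mL kanamycin, incubated overnight at 37°C or 30°C. The E. coli BL21(DE3) library had all eight P1ex-region intron nucleotides randomised, the intron placed in the knt kanamycin-resistance gene on pET-22b(+). DiMSum fitness is the error-weighted combination of replicate fold changes, kanamycin against none, normalised to wild type.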

Sequence	self-splicing fitness (ln) (30 °C)	self-splicing fitness (ln) (37 °C)
GCAAAGCAAUAUUACGAGGC	-3.55 ± 0.34	-2.77 ± 0.4
CUUCAGCAAUAUUACGCAGA	-3.44 ± 0.37	-2.18 ± 0.22
GCCUAGCAAUAUUACGGAUC	-0.351 ± 0.12	-0.096 ± 0.16
GAUUAGCAAUAUUACGUAAU	-3.06 ± 0.18	-0.741 ± 0.12
GUGGAGCAAUAUUACGCCUU	-2.3 ± 0.31	-1.09 ± 0.22
UCGCAGCAAUAUUACGCACG	-2.26 ± 0.16	-0.255 ± 0.15
CGUAAGCAAUAUUACGAGUG	-2.51 ± 0.13	-0.853 ± 0.1
CGGGAGCAAUAUUACGGCUA	-2.44 ± 0.39	–
AGUGAGCAAUAUUACGACAA	-2.34 ± 0.23	-0.743 ± 0.18
AGCGAGCAAUAUUACGCACG	-3.64 ± 0.45	–
CUACAGCAAUAUUACGGCUU	-2.38 ± 0.15	–
GAAAAGCAAUAUUACGGAUA	-1.32 ± 0.13	-1.18 ± 0.12
AGGCAGCAAUAUUACGGAAG	-2.92 ± 0.13	-1.98 ± 0.15
GUGCAGCAAUAUUACGUCUC	-0.469 ± 0.084	0.48 ± 0.11
UAUCAGCAAUAUUACGGAGC	-3.14 ± 0.17	-3.71 ± 0.19
CUGGAGCAAUAUUACGUGAG	-0.772 ± 0.049	-0.213 ± 0.063
UGACAGCAAUAUUACGUUGC	-3.03 ± 0.2	-2.89 ± 0.23
GUAGAGCAAUAUUACGGACG	-2.8 ± 0.36	-1 ± 0.3
GCACAGCAAUAUUACGAAGU	-1.3 ± 0.11	-0.941 ± 0.14
CCCGAGCAAUAUUACGUUAC	-3.01 ± 0.35	-2.37 ± 0.32
ACUAAGCAAUAUUACGGGUC	-3.49 ± 0.34	-0.75 ± 0.23
AUUGAGCAAUAUUACGGCUA	-1.73 ± 0.37	-0.81 ± 0.21
UUUGAGCAAUAUUACGGCUG	-0.955 ± 0.11	-0.634 ± 0.17
AGACAGCAAUAUUACGGGGG	-3.63 ± 0.26	-2.79 ± 0.23
UAUUAGCAAUAUUACGUGAC	-2.92 ± 0.42	-1.82 ± 0.27

Sequence	self-splicing fitness (ln) (30 °C)	self-splicing fitness (ln) (37 °C)
UCGAAGCAAUAUUACGAUUC	-4.04 ± 0.39	-1.74 ± 0.26
GCGCAGCAAUAUUACGUUCA	-0.782 ± 0.098	0.151 ± 0.1
GCGAAGCAAUAUUACGAAGA	-2.14 ± 0.22	-0.931 ± 0.21
AGCGAGCAAUAUUACGACGG	-3.17 ± 0.44	-1.81 ± 0.26
GGUGAGCAAUAUUACGGUGG	-3.06 ± 0.26	-2.88 ± 0.32
CGAUAGCAAUAUUACGAAUG	-0.898 ± 0.082	0.443 ± 0.11
CCUUAGCAAUAUUACGAGGC	-4.12 ± 0.29	-1.6 ± 0.27
UACAAGCAAUAUUACGCCAA	-1.74 ± 0.18	-1.07 ± 0.15
UGCUAGCAAUAUUACGUAGG	-2.18 ± 0.14	-0.778 ± 0.2
CCGAAGCAAUAUUACGCGAC	-3.1 ± 0.2	-1.48 ± 0.19
GAUUAGCAAUAUUACGCUAG	-1.95 ± 0.17	-0.989 ± 0.15
GGGGAGCAAUAUUACGUGGA	-2.04 ± 0.35	-2.48 ± 0.39
UGCUAGCAAUAUUACGACUG	0.165 ± 0.081	0.259 ± 0.11
AGAGAGCAAUAUUACGCACC	0.805 ± 0.35	–
AAUUAGCAAUAUUACGGGGU	-2.06 ± 0.2	-2.02 ± 0.32
CUCGAGCAAUAUUACGGCUU	-2.57 ± 0.47	–
GAAUAGCAAUAUUACGCCGG	-2.65 ± 0.32	-1.79 ± 0.24
UUGAAGCAAUAUUACGAUCA	-0.786 ± 0.1	0.00258 ± 0.15
CGGUAGCAAUAUUACGGCCG	-3.76 ± 0.24	-0.985 ± 0.2
GGCCAGCAAUAUUACGAGCC	-2.63 ± 0.26	-2.72 ± 0.29
GCCCAGCAAUAUUACGCUCU	0.00415 ± 0.05	0.138 ± 0.066
AUAUAGCAAUAUUACGUGCA	-1.57 ± 0.16	0.00562 ± 0.16
GCGGAGCAAUAUUACGCUCA	-0.528 ± 0.3	-0.54 ± 0.26
GUAGAGCAAUAUUACGAAUU	-2.35 ± 0.21	-2.01 ± 0.35
GAGCAGCAAUAUUACGUGUG	-3.28 ± 0.12	-0.789 ± 0.11

Sequence	self-splicing fitness (ln) (30 °C)	self-splicing fitness (ln) (37 °C)
ACUAAGCAAUAUUACGUGUA	-2.6 ± 0.13	-1.38 ± 0.12
CCUCAGCAAUAUUACGGUUG	-2.28 ± 0.085	-0.828 ± 0.094
CCUCAGCAAUAUUACGUGUG	-1.4 ± 0.061	-0.812 ± 0.062
CAUAAGCAAUAUUACGUAGA	-3.68 ± 0.13	-1.97 ± 0.12
AUGCAGCAAUAUUACGAUCC	-1.78 ± 0.22	-0.259 ± 0.29
AAUAAGCAAUAUUACGUUAU	-2.45 ± 0.13	-1.58 ± 0.16
ACCGAGCAAUAUUACGUCAU	-5.01 ± 0.34	-2.68 ± 0.14
GCGCAGCAAUAUUACGUCCA	-1.63 ± 0.12	-0.0959 ± 0.18
UAGAAGCAAUAUUACGUUCU	-1.61 ± 0.11	-1.08 ± 0.11
AACCAGCAAUAUUACGUCGA	-0.87 ± 0.071	-0.757 ± 0.07
AGGGAGCAAUAUUACGAGUU	-4.48 ± 0.46	-1.45 ± 0.19
UGCAAGCAAUAUUACGUUGA	-2.47 ± 0.1	-1.32 ± 0.11
CCCCAGCAAUAUUACGAGGG	-3.83 ± 0.15	-2.78 ± 0.18
UUUAAGCAAUAUUACGAGCA	-1.38 ± 0.21	-0.686 ± 0.22
GCCAAGCAAUAUUACGACUC	-0.25 ± 0.08	0.136 ± 0.098
CCGUAGCAAUAUUACGAUUU	-3.55 ± 0.17	-2.08 ± 0.17
UGGAAGCAAUAUUACGAACC	-1.6 ± 0.13	-0.663 ± 0.12
GGGAAGCAAUAUUACGCAUA	-2.35 ± 0.18	-1.25 ± 0.14
GCCCAGCAAUAUUACGACCC	-0.0226 ± 0.14	-0.0967 ± 0.21
CAGAAGCAAUAUUACGGGGA	-4.87 ± 0.36	-1.61 ± 0.11
AUGGAGCAAUAUUACGCCGA	-2.82 ± 0.32	-2.87 ± 0.48
GAUUAGCAAUAUUACGCUUU	-2.1 ± 0.46	-1.9 ± 0.33
AACAAGCAAUAUUACGUUGA	-3.31 ± 0.13	-1.95 ± 0.1
CGCCAGCAAUAUUACGAAUG	-0.783 ± 0.058	0.0658 ± 0.066
CUUCAGCAAUAUUACGUGGC	-2.61 ± 0.23	-2.08 ± 0.43

Sequence	self-splicing fitness (ln) (30 °C)	self-splicing fitness (ln) (37 °C)
ACAAAGCAAUAUUACGCUCU	-1.09 ± 0.063	-0.102 ± 0.095
ACUGAGCAAUAUUACGUUGC	–	-2.04 ± 0.28
CUGUAGCAAUAUUACGUGCA	-2.56 ± 0.18	-2.5 ± 0.16
ACUUAGCAAUAUUACGAUGC	-1.04 ± 0.091	-0.644 ± 0.11
ACGGAGCAAUAUUACGGCCA	-1.69 ± 0.25	-2.11 ± 0.23
GUAAAGCAAUAUUACGAACC	-2.39 ± 0.29	-2.8 ± 0.36
AAGUAGCAAUAUUACGCUCG	-0.592 ± 0.13	-0.234 ± 0.17
UCAAAGCAAUAUUACGACCG	-0.525 ± 0.15	0.396 ± 0.21
UGGUAGCAAUAUUACGUAAC	-2.08 ± 0.45	–
GGAUAGCAAUAUUACGAACU	-0.708 ± 0.15	-0.573 ± 0.19
GGGCAGCAAUAUUACGAUAA	-2.67 ± 0.21	-1.75 ± 0.18
AGGCAGCAAUAUUACGUUCU	-1.86 ± 0.08	-0.817 ± 0.09
CGUAAGCAAUAUUACGAUCU	-2.36 ± 0.15	-0.243 ± 0.11
GGGCAGCAAUAUUACGUGUA	-2.19 ± 0.15	-0.515 ± 0.12
CUUUAGCAAUAUUACGAGCG	-1.16 ± 0.073	0.0581 ± 0.12
CGUAAGCAAUAUUACGUUUA	-1.69 ± 0.18	-1.41 ± 0.18
CUCUAGCAAUAUUACGGGAU	-2.37 ± 0.11	-3.45 ± 0.16
CGAGAGCAAUAUUACGCGCU	-2.04 ± 0.38	–
AUCAAGCAAUAUUACGCGGU	-4.07 ± 0.19	-2.03 ± 0.16
UGAAAGCAAUAUUACGAUCC	-0.303 ± 0.14	0.92 ± 0.18
CAAUAGCAAUAUUACGCGUG	-1.93 ± 0.092	-1.44 ± 0.095
UAGUAGCAAUAUUACGCUUC	–	-1.91 ± 0.37
GGCUAGCAAUAUUACGAGUU	-1.95 ± 0.11	-0.414 ± 0.11

Reference: the supplement of paper PMC7877785
